Source: the supplement of paper PMC10567573

B1: TMEM106C (parent)
chain: FTGRDSITCLTCQGTGYIPTEQVN

Variants of: B1
Test: protein stability index of a GFP-peptide fusion (GPS, HEK-293T) (PSI 1-6); higher = more stable
Conditions: c terminus: a fixed tail appended
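Note: lentivirally expressed fusions sorted by FACS into six bins by GFP to DsRed ratio, PSI derived from sequencing read proportions per bin multiplied by bin number.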

Protein stability index: each site, then its substitutions
C9: R 1.52 | Y 2.75 | A 2 | N 1.94 | G 1.75 | D 3.16 | L 2.04 | S 2.28 | T 1.82 | K 2.17 | V 1.9 | M 2.88 | I 3.25 | E 2.73 | H 1.73 | P 2.1 | Q 1.68 | F 2.86
T15: P 2.1 | Q 1.53 | G 1.43 | N 1.62 | L 1.89 | R 2.26 | K 2.12 | H 2.09 | V 2.04 | I 2.16 | W 2.34 | C 2.26 | S 1.56 | F 2.26 | D 1.81 | M 2.59 | Y 2.52 | A 2.12 | E 1.64
C12: P 1.68 | V 1.83 | Y 2.06 | L 1.79 | H 1.98 | F 2.34 | D 2.41 | I 2.4 | E 2.18 | K 2 | G 2.04 | N 2.18 | A 2.17 | T 1.63 | M 2.09 | Q 1.95 | R 1.85 | W 2.51 | S 2
L10: D 3.96 | M 1.91 | S 2.85 | V 2.2 | G 2.02 | K 2.7 | C 1.99 | W 2.01 | E 3.8 | I 1.98 | Y 3.42 | P 4.51 | F 3 | A 2.29 | N 2.77 | T 2.65 | R 2.36 | H 2.84 | Q 3.17
D5: R 1.87 | E 1.96 | W 3.14 | C 3.35 | G 1.49 | H 2.82 | A 1.94 | I 2.65 | S 2.29 | K 1.84 | Q 2.17 | L 2.66 | M 2.73 | F 3 | P 2.12 | N 1.56 | V 4.33 | T 2.15 | Y 3.35
Y17: K 1.94 | P 1.91 | C 2.13 | W 3.54 | R 2.34 | T 2.16 | S 1.68 | V 2.55 | H 2.61 | I 1.92 | Q 1.79 | G 1.47 | A 1.8 | D 2.17 | M 1.77 | L 1.84 | N 1.93 | E 2.2 | F 1.64
T11: D 2.42 | P 1.55 | V 2.66 | W 2.97 | R 1.97 | Y 2.07 | S 2.01 | F 2.85 | M 1.77 | N 1.86 | K 1.7 | L 1.66 | C 1.86 | G 1.64 | E 2.01 | Q 1.85 | A 2.32 | I 1.52 | H 2.06
I18: L 2.55 | C 1.91 | D 1.96 | P 1.58 | A 1.93 | M 2.78 | K 1.82 | E 1.53 | H 2.4 | R 2.57 | S 2.09 | G 1.48 | Q 2 | N 1.61 | F 1.86
I7: V 1.77 | N 2.15 | H 2.09 | K 2.32 | S 2.39 | P 2.23 | G 2.16 | Y 2.68 | W 3.32 | F 1.6 | L 2.07 | A 2.22 | R 2.15 | T 2.78 | D 2.83 | Q 2.5 | E 2.89 | C 1.73 | M 1.76
Q13: N 2.39 | D 1.83 | S 1.92 | G 2.28 | K 1.96 | H 2.09 | W 2.52 | L 2.13 | Y 2.38 | F 2.17 | T 2.71 | M 1.75 | A 2.23 | R 2.18 | E 1.95 | C 1.53 | V 2 | P 1.94 | I 2.35
S6: Q 2.05 | N 2.58 | F 2.38 | L 2.16 | T 2.43 | A 2.27 | H 2.43 | P 2.18 | R 2.45 | E 2.73 | V 2.5 | D 2.58 | G 1.9 | Y 2.04 | K 2.34 | C 1.99 | M 1.79 | I 2.92
G14: L 2.8 | Q 1.99 | A 1.5 | D 1.56 | K 1.66 | P 1.29 | M 2.91 | H 1.88 | V 2.35 | F 2.99 | C 1.89 | N 1.74 | S 1.58 | W 1.69 | T 2.33 | E 2.28 | I 2.53 | R 2.24
T8: A 2.91 | M 2.4 | S 2.4 | R 1.41 | L 2 | E 1.84 | P 1.9 | K 1.79 | V 2.09 | Y 2.15 | W 2.22 | H 2.28 | C 2.11 | Q 2.37 | F 3.56 | N 1.92 | I 1.82 | D 2.37
G3: Y 2.45 | L 3.45 | Q 2.09 | C 1.89 | A 2.79 | E 2.7 | H 1.7 | M 2.81 | D 1.85 | K 3.49 | F 1.7 | R 2.84 | N 2.12 | P 2.76 | T 2.04 | V 2.99 | I 2.33 | S 1.46 | W 1.48
T2: S 2.07 | L 2.61 | P 2.82 | Q 2.91 | R 4.04 | M 2.95 | K 4.3 | G 2.84 | F 3.19 | H 3.35 | D 4.1 | V 2.87 | E 4.48 | Y 3.3 | C 2.63 | W 2.31 | N 3.32 | A 2.81 | I 1.97
G16: V 1.85 | D 1.56 | S 2.05 | C 1.83 | P 3.09 | A 1.92 | Y 2.08 | T 2.04 | K 1.56 | W 2.98 | E 1.7 | H 2.01 | M 2.8 | L 2.13 | R 2.21 | F 2.71 | I 2.94 | Q 1.6 | N 1.49
F1: R 4.35 | L 4.16 | V 4.43 | E 4.7 | W 4.06 | T 4.76 | Y 1.99 | Q 4.65 | D 4.88 | G 4.15 | N 4.48 | P 4.63 | S 4.33 | A 4.7 | K 4.29 | I 3.94 | M 4.77 | H 4.52 | C 3.92
R4: F 2.52 | M 2.33 | W 2.62 | A 1.86 | Q 2.46 | E 2.59 | P 2.41 | C 2.32 | I 2.48 | L 1.81 | D 3.14 | V 1.7 | H 1.98 | S 3.04 | G 1.74 | T 1.87 | Y 1.65 | K 2.12 | N 2.8
